# In PMC11050402:
# Legend:
# [1] = biological target: human serum albumin (human) (UniProt P02768); experiment: SPR; Biacore T200, as described by Yin and co-authors (ref. 40); DOTA conjugates without radionuclide
# [2] = biological target: murine serum albumin (murine) (UniProt P07724); experiment: as above
# [3] = biological target: human epidermal growth factor receptor type 2 (HER2) (human (endogenous in SKOV-3 and BT-474)) (UniProt P04626); experiment: radioligand binding; LigandTracer Yellow on living SKOV-3 cells, 3 and 9 nM (1, 3 and 9 nM for [177Lu]Lu-G3), room temperature, with 100 nM human serum albumin; InteractionMap analysis, 1:2 model; apparent
# Chain of UniProt P07724 (P07724 25-608): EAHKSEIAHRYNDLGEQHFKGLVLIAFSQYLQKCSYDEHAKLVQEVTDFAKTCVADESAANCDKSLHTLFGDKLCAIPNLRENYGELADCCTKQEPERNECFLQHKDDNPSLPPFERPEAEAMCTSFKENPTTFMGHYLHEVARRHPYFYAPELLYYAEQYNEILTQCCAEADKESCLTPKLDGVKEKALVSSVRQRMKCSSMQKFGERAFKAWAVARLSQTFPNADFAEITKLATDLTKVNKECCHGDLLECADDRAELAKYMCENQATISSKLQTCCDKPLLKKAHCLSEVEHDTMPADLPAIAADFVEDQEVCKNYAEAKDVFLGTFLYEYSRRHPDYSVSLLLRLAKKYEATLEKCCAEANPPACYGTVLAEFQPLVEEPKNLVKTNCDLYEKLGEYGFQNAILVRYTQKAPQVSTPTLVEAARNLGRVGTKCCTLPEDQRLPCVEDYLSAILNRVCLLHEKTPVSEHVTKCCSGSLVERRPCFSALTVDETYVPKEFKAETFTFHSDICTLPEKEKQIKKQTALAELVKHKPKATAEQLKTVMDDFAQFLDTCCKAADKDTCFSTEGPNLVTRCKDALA
# Chain of UniProt P02768 (P02768 25-609): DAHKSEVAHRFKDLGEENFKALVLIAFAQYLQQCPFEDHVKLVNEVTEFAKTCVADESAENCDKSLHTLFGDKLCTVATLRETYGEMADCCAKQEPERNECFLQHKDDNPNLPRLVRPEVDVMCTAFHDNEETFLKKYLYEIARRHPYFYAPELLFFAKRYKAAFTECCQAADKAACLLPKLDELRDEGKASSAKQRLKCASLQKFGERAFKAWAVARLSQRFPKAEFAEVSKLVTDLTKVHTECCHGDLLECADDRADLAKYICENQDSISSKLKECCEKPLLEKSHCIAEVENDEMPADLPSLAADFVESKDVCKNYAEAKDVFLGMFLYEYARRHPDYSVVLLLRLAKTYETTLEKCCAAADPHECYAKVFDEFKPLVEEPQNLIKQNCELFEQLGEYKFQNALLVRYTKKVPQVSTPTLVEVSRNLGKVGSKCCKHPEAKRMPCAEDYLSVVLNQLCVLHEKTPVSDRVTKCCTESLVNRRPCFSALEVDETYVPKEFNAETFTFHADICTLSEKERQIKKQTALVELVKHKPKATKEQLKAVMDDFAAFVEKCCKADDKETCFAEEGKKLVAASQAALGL
Substance,Kd [1],koff [1],kon [1],Kd [2],koff [2],kon [2],"KD1 (first interaction, 1:2 model) [3]","KD2 (second interaction, 1:2 model) [3]"
G3-ABD-DOTA (designed binder),1.82 nM,0.000238 s⁻¹,131000 M⁻¹ s⁻¹,8.46 nM,0.00518 s⁻¹,61300 M⁻¹ s⁻¹,901 pM,24 nM
non-ABD-fused DARPin G3 (control protein) (designed binder),–,–,–,–,–,–,–,34 nM
ABD-G3-DOTA (designed binder),35.4 nM,0.000302 s⁻¹,8530 M⁻¹ s⁻¹,81.3 nM,0.00191 s⁻¹,23500 M⁻¹ s⁻¹,1290 pM,67 nM
